The source of these data is publication PMC10877986 (mAbs, 2024).

What all share (assay): SPR
The target in assay [1] is recombinant cynomolgus monkey PD-1 (Macaca fascicularis (cynomolgus monkey), UniProt B0LAJ3).
The next assay deals with recombinant mouse PD-1 (Mus musculus, UniProt Q02242).
Assay [2] deals with T1, recombinant human PD-1 (Homo sapiens, UniProt Q15116).
Assay [3] addresses T1, recombinant human PD-1. This is another data set of the same source.

Numbering of substitutions follows the chain as printed. Like-named read-outs stand apart in the source and are kept apart here.

T1 sequence (Q15116 25-170): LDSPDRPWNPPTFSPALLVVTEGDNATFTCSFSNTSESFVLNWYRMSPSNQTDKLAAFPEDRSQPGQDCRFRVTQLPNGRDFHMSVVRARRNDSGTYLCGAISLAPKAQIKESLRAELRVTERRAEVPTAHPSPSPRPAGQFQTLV
Sequence of recombinant mouse PD-1 (Q02242 25-169): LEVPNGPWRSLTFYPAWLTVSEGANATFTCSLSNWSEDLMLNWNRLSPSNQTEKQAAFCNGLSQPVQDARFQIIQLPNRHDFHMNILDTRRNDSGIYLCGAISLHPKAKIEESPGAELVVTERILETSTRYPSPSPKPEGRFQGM

B1: h1340.CC (antibody, V domains shown)
VH: EQQLVESGGGVVQPGRSLRLSCAASGFSFSSTYWICWVRQAPGKGLEWIACIYAGSSGNTYYANWAKGRFTISKDSSSTTVFLQMNSLRAEDTAVYFCARAGGAGGGVYTLTRLDLWGQGTLVTVSS
VL: AAQLTQSPSSLSASVGDRVTITCQSSQSVYNNNDLAWYQQKPGKPPKLLIYTPSSLTSGVPSRFSGSGSGTDFTLTISSLQPEDFATYYCLGGYDDDSDNAFGGGTKVEIK
Turning to B1, the Kd is 0.42 nM in assay [1], 1.72 nM in the assay with recombinant mouse PD-1, 0.3 nM with recombinant human PD-1 [2] and 0.1 nM with recombinant human PD-1 [3].

B2: h1340.AA (antibody, V domains shown)
VH: B1 VH with C36A, C51A
VL: B1 VL
With B2, the binding result with recombinant human PD-1 [3] is given as “binds”.

B3: h1340.SA.3 (antibody, V domains shown)
VH: B1 VH with S30D, C36S, C51A
VL: B1 VL
On to B3, for which the binding result in the assay with recombinant human PD-1 [3] is given as “binds”.

B4: h1340.SA.5 (antibody, V domains shown)
VH: B1 VH with C36S, C51A, A54L
VL: B1 VL
For the molecule B4, the binding result with recombinant human PD-1 [3] was “binds”.

B5: h1340.SA.6 (antibody, V domains shown)
VH: B1 VH with C36S, C51A, A101S
VL: B1 VL
In the case of B5, the binding result with recombinant human PD-1 [3] is “binds”.

B6: h1340.SA (antibody, V domains shown)
VH: B1 VH with C36S, C51A
VL: B1 VL
As for B6, the results for the “fold decrease in affinity against rbt1340” value (in assay [1]; in the assay with recombinant human PD-1 [2]) were 6 fold and 4 fold, respectively. The “fold decrease in affinity against h1340.CC” value with recombinant mouse PD-1 was about 4 fold; with recombinant human PD-1 [2] it was about 2.5 fold. In addition, the Kd in the assay with recombinant human PD-1 [3] turned out to be 0.7 nM.
